Changes are numbered by the printed parent chain. In names and notes the source's numbering stands.
Legend:
[1] = test system: wild-type and variant SNAP-GIPR; assay: Single-concentration GIP cAMP response by HTRF in INS-1 cells; assay type: cell-based, human; conditions: Fig S3E, mean
Description: All variants were tested in parallel on each occasion to control for transfection efficiency differences between experiments.

[2] = test system: wild-type and variant SNAP-GIPR; assay: Surface SNAP-GIPR expression (SNAP-tag labelling) in AD293 cells; assay type: cell-based, human; conditions: for AD293 Surface: Fig S3E, mean; for Surface SNAP-GIPR expression: sheet Fig 1C;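 on all read-outs here: scaled to the experimental average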
Method in brief: (§1)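 Read-out: whole-cell fluorescence of surface-only SNAP label (Alexa Fluor 647, 500 nM, 10 min, RT), wide-field 20X, several FOVs per well. Flat-field corrected, phase-contrast masked, nontransfected-well signal subtracted; normalized to experiment mean or wild-type.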

[3] = test system: wild-type and variant SNAP-GIPR in Gipr-/- mouse islets; assay: Glucagon secretion from Gipr-/- mouse islets transduced with GIPR adenoviruses; assay type: cell-based; conditions: Fig S6C, Gipr-/- mouse islets
Description: (§2) Isolated islets used for insulin secretion assays were treated in 1.5-ml microcentrifuge tubes. Eight-ten islets were used per well with two-three technical replicates per condition. […] At the end of the treatment, supernatants containing the secreted insulin or glucagon were collected, centrifuged at 1000g for 5 min, and transferred to fresh tubes. […] The lysates were sonicated 3× for 10 s in a water bath and centrifuged at 10,000g for 10 min, and the supernatants were collected. The samples were stored at −20°C until the insulin or glucagon concentrations were determined using an Insulin Ultra-Sensitive HTRF Assay kit (62IN2PEG, Revvity) or an HTRF Glucagon Detection Kit (62CGLPEG, Revvity) respectively, according to the manufacturer’s instructions. GraphPad Prism 9.0 was used for the generation of the standard curve and sample concentration extrapolation. The total insulin or glucagon content was calculated by adding the secreted insulin to the insulin content of the lysates, and secretion was reported as the percentage release of total. The percent secretion of islets treated with agonist was normalized to that of islets treated with vehicle and reported as a fold change.

[4] = test system: wild-type and variant SNAP-GIPR in wild-type mouse islets; assay: Insulin secretion from wild-type mouse islets transduced with GIPR adenoviruses; assay type: cell-based; conditions: Fig 6F
Description: as §2, with “The samples were stored at −20°C until the insulin or glucagon concentrations were determined using an Insulin Ultra-Sensitive HTRF Assay kit (62IN2PEG, Revvity) or an HTRF Glucagon Detection Kit (62CGLPEG, Revvity) respectively, according to the manufacturer’s instructions.” left out

[5] = test system: wild-type and variant SNAP-GIPR; assay: Surface SNAP-GIPR expression (SNAP-tag labelling) in INS-1 cells; assay type: cell-based, human; conditions: Fig 4G; Mean
Method in brief: as §1

[6] = column repeated, paired with cAMP 100 nM

B1: R190Q (protein)
chain: RAETGSKGQTAGELYQRWERYRRECQETLAAAEPPSGLACNGSFDMYVCWDYAAPNATARASCPWYLPWHHHVAAGFVLRQCGSDGQWGLWRDHTQCENPEKNEAFLDQRLILERLQVMYTVGYSLSLATLLLALLILSLFRRLHCTRNYIHINLFTSFMLRAAAILSQDRLLPRPGPYLGDQALALWNQALAACRTAQIVTQYCVGANYTWLLVEGVYLHSLLVLVGGSEEGHFRYYLLLGWGAPALFVIPWVIVRYLYENTQCWERNEVKAIWWIIRTPILMTILINFLIFIRILGILLSKLRTRQMRCRDYRLRLARSTLTLVPLLGVHEVVFAPVTEEQARGALRFAKLGFEIFLSSFQGFLVSVLYCFINKEVQSEIRRGWHHCRLRRSLGEEQRQLPERAFRALPSGSGPGEVPTSRGLSSGTLPGPGNEASRELESYC
modifications: left off: SNAP-tag, end not stated, kept
INS-1 cAMP (100 nM) [1]: -0.04979 | AD293 Surface [2, 6]: 0.3804 | AD293 Surface ([2]; paired with cAMP 100 pM): 0.3804 | Surface SNAP-GIPR expression ([2]; replicate 1): 0.4051 | Surface SNAP-GIPR expression ([2]; replicate 2): 0.3209 | Surface SNAP-GIPR expression ([2]; replicate 3): 0.5539 | Surface SNAP-GIPR expression ([2]; replicate 4): 0.3598 | Surface SNAP-GIPR expression ([2]; replicate 5): 0.3596 | Surface SNAP-GIPR expression ([2]; replicate 6): 0.3496 | Surface SNAP-GIPR expression ([2]; replicate 7): 0.6994 | Surface SNAP-GIPR expression ([2]; replicate 8): 0.559 | Surface SNAP-GIPR expression ([2]; replicate 9): 0.4541 | Surface SNAP-GIPR expression ([2]; replicate 10): 0.3587 | Surface SNAP-GIPR expression ([2]; replicate 11): 0.3825 | Surface SNAP-GIPR expression ([2]; replicate 12): 0.3815 | Surface SNAP-GIPR expression ([2]; replicate 13): 0.0633 | Surface SNAP-GIPR expression ([2]; replicate 14): 0.2489 | Surface SNAP-GIPR expression ([2]; replicate 15): 0.3401 | Surface SNAP-GIPR expression ([2]; replicate 16): 0.3428 | Surface SNAP-GIPR expression ([2]; replicate 17): 0.3498 | Surface SNAP-GIPR expression ([2]; replicate 18): 0.3062 | Surface SNAP-GIPR expression ([2]; replicate 19): 0.4941 | Surface SNAP-GIPR expression ([2]; replicate 20): 0.4147 | Surface SNAP-GIPR expression ([2]; replicate 21): 0.448 | Surface SNAP-GIPR expression ([2]; replicate 22): 0.3466 | Surface SNAP-GIPR expression ([2]; replicate 23): 0.3211 | Surface SNAP-GIPR expression ([2]; replicate 24): 0.3185 | Surface SNAP-GIPR expression ([2]; replicate 25): 0.3831 | Surface SNAP-GIPR expression ([2]; replicate 26): 0.4894 | Surface SNAP-GIPR expression ([2]; replicate 27): 0.2936 | Surface SNAP-GIPR expression ([2]; replicate 28): 0.2968 | Surface SNAP-GIPR expression ([2]; replicate 29): 0.3488 | Surface SNAP-GIPR expression ([2]; replicate 30): 0.3484 | Surface SNAP-GIPR expression ([2]; replicate 31): 0.4442 | Surface SNAP-GIPR expression ([2]; replicate 32): 0.3528 | Surface SNAP-GIPR expression ([2]; replicate 33): 0.3442 | Surface SNAP-GIPR expression ([2]; replicate 34): 0.4073 | Surface SNAP-GIPR expression ([2]; replicate 35): 0.5179 | Surface SNAP-GIPR expression ([2]; replicate 36): 0.2819 | Surface SNAP-GIPR expression ([2]; replicate 37): 0.3273 | Surface SNAP-GIPR expression ([2]; replicate 38): 0.3893 | Surface SNAP-GIPR expression ([2]; replicate 39): 0.3839 | Surface SNAP-GIPR expression ([2]; replicate 40): 0.3508 | Surface SNAP-GIPR expression ([2]; replicate 41): 0.4598 | Glucagon secretion, ratio G0.5 + GIP / G0.5 ([3]; replicate 1): 0.4628 | Glucagon secretion, ratio G0.5 + GIP / G0.5 ([3]; replicate 2): 1.4505 | Glucagon secretion, ratio G0.5 + GIP / G0.5 ([3]; replicate 3): 0.8994 | Glucagon secretion, ratio G0.5 + GIP / G0.5 ([3]; replicate 4): 1.147 | Insulin secretion, ratio G11 + GIP / G11 ([4]; replicate 1): 1.037 | Insulin secretion, ratio G11 + GIP / G11 ([4]; replicate 2): 0.9818 | Insulin secretion, ratio G11 + GIP / G11 ([4]; replicate 3): 1.417 | Insulin secretion, ratio G11 + GIP / G11 ([4]; replicate 4): 0.8398 | Insulin secretion, ratio G11 + GIP / G11 ([4]; replicate 5): 1.788 | Surface expression [5]: 0.5789

B2: E354Q (protein)
chain: B1 chain with Q169R, E333Q
INS-1 cAMP (100 nM) [1]: 1.46 | AD293 Surface [2, 6]: 0.7482 | AD293 Surface ([2]; paired with cAMP 100 pM): 0.7482 | Surface SNAP-GIPR expression ([2]; replicate 1): 0.8065 | Surface SNAP-GIPR expression ([2]; replicate 2): 0.9885 | Surface SNAP-GIPR expression ([2]; replicate 3): 0.6105 | Surface SNAP-GIPR expression ([2]; replicate 4): 0.8642 | Surface SNAP-GIPR expression ([2]; replicate 5): 0.9388 | Surface SNAP-GIPR expression ([2]; replicate 6): 0.763 | Surface SNAP-GIPR expression ([2]; replicate 7): 0.751 | Surface SNAP-GIPR expression ([2]; replicate 8): 0.7772 | Surface SNAP-GIPR expression ([2]; replicate 9): 0.3807 | Surface SNAP-GIPR expression ([2]; replicate 10): 0.8583 | Surface SNAP-GIPR expression ([2]; replicate 11): 0.7525 | Surface SNAP-GIPR expression ([2]; replicate 12): 0.8043 | Surface SNAP-GIPR expression ([2]; replicate 13): 1.071 | Surface SNAP-GIPR expression ([2]; replicate 14): 0.6911 | Surface SNAP-GIPR expression ([2]; replicate 15): 0.7162 | Surface SNAP-GIPR expression ([2]; replicate 16): 0.6632 | Surface SNAP-GIPR expression ([2]; replicate 17): 0.6439 | Surface SNAP-GIPR expression ([2]; replicate 18): 0.5804 | Surface SNAP-GIPR expression ([2]; replicate 19): 0.6207 | Surface SNAP-GIPR expression ([2]; replicate 20): 0.742 | Surface SNAP-GIPR expression ([2]; replicate 21): 0.7392 | Surface SNAP-GIPR expression ([2]; replicate 22): 0.5026 | Surface SNAP-GIPR expression ([2]; replicate 23): 0.762 | Surface SNAP-GIPR expression ([2]; replicate 24): 0.7507 | Surface SNAP-GIPR expression ([2]; replicate 25): 0.8473 | Surface SNAP-GIPR expression ([2]; replicate 26): 0.7374 | Surface SNAP-GIPR expression ([2]; replicate 27): 0.7405 | Surface SNAP-GIPR expression ([2]; replicate 28): 0.7355 | Surface SNAP-GIPR expression ([2]; replicate 29): 0.6896 | Surface SNAP-GIPR expression ([2]; replicate 30): 1.162 | Surface SNAP-GIPR expression ([2]; replicate 31): 0.7254 | Surface SNAP-GIPR expression ([2]; replicate 32): 0.7792 | Surface SNAP-GIPR expression ([2]; replicate 33): 0.8108 | Surface SNAP-GIPR expression ([2]; replicate 34): 0.9519 | Surface SNAP-GIPR expression ([2]; replicate 35): 0.6078 | Surface SNAP-GIPR expression ([2]; replicate 36): 0.6218 | Surface SNAP-GIPR expression ([2]; replicate 37): 0.8918 | Surface SNAP-GIPR expression ([2]; replicate 38): 0.4883 | Surface SNAP-GIPR expression ([2]; replicate 39): 0.768 | Surface SNAP-GIPR expression ([2]; replicate 40): 0.6348 | Surface SNAP-GIPR expression ([2]; replicate 41): 0.707 | Glucagon secretion, ratio G0.5 + GIP / G0.5 ([3]; replicate 1): 0.6783 | Glucagon secretion, ratio G0.5 + GIP / G0.5 ([3]; replicate 2): 1.215 | Glucagon secretion, ratio G0.5 + GIP / G0.5 ([3]; replicate 4): 1.495 | Insulin secretion, ratio G11 + GIP / G11 ([4]; replicate 1): 0.7071 | Insulin secretion, ratio G11 + GIP / G11 ([4]; replicate 2): 0.9219 | Insulin secretion, ratio G11 + GIP / G11 ([4]; replicate 3): 0.7382 | Insulin secretion, ratio G11 + GIP / G11 ([4]; replicate 4): 0.5337 | Insulin secretion, ratio G11 + GIP / G11 ([4]; replicate 5): 0.4605 | Surface expression [5]: 0.7154

From PMC13544220, “Glycemic and bodyweight effects of GIPR coding variation reflect differences in surface expression and intrinsic functional impairment” (Science Advances, 2026)
